Assay [1] concerns the target adeno-associated virus 2 (AAV2) capsid (adeno-associated virus 2).
The target is the same in assay [2]. Nature of the assay: SPR; AAV2 amine-coupled to a CM5 chip (9451 RU); HD5 or HNP1 as analyte; BIAcore X100, 25°C, PBS running buffer; 1:1 binding model for KD; stoichiometry by GraphPad Prism; 2 replicates; paper speaks of avidity.
For assay [3], the target named is adeno-associated virus 6 (AAV6) capsid (adeno-associated virus 6).
For assay [4], the target named is adeno-associated virus 2 (AAV2) capsid (adeno-associated virus 2). This is another data set of the same source.

For the substance human defensin 5 (HD5) (peptide), in assay [1], the IC50 of inhibition of AAV2 binding to HeLa cells in the cold (qPCR of bound genomes) worked out at 9.2 µM and the IC50 of inhibition of AAV2 infection of HeLa cells (GFP), defensin added post-attachment turned out to be 4.4 µM. Moreover, in assay [2], the Kd worked out at 0.57 µM and the stoichiometry N (molecules per capsid) came out at 385. In assay [3], this substance gave an IC50 of inhibition of AAV6 binding to HeLa cells in the cold (qPCR of bound genomes); inhibition incomplete of 41.6 µM.
For the substance human neutrophil peptide 1 (HNP1), the IC50 of inhibition of AAV2 infection of HeLa cells (GFP), defensin added post-attachment in assay [1] came out at 6 µM. In addition, in assay [2], the Kd was found to be 0.32 µM and the stoichiometry N (molecules per capsid) stood at 227. In assay [4], this substance yielded an IC50 of inhibition of AAV2 infection of HeLa cells (GFP), defensin incubated with virus pre-attachment of 9.7 µM.

(Values after paper PMC12289019.)
